Read-outs that look alike come from different tables or passages of the source.
T1: HCV Core1-169 (HCV-1), P26664
T1 chain: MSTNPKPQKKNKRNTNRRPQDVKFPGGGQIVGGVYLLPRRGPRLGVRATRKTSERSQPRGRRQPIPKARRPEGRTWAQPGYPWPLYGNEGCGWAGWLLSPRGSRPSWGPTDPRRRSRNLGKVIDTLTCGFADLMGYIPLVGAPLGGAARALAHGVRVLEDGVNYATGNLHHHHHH


How the values were obtained:
[1] = biological target: biotinylated HCV core peptide 134-154 (Peptide 1) (HCV-1); assay: EIA, captured mAb
[2] = biological target: biotinylated HCV core peptide 151-171 (Peptide 3) (HCV-1); assay: EIA, captured mAb
[3] = biological target: biotinylated HCV core peptide 141-161 (Peptide 2) (HCV-1); assay: EIA, captured mAb
[4] = biological target: T1, HCV Core1-169 (HCV-1), P26664; assay: SPR sandwich, C11-14 capture; conditions: remark: other sources report otherwise
[5] = biological target: biotinylated HCV core peptide 141-161 (Peptide 2) (HCV-1); assay: EIA, captured mAb; remark: listed apart in the source
[6] = biological target: T1, HCV Core1-169 (HCV-1), P26664; assay: SPR sandwich, C11-9 capture; conditions: remark: other sources report otherwise
[7] = biological target: T1, HCV Core1-169 (HCV-1), P26664; assay: SPR sandwich, C11-7 capture; conditions: remark: other sources report otherwise
[8] = biological target: T1, HCV Core1-169 (HCV-1), P26664; assay: SPR sandwich, C11-3 capture; conditions: remark: other sources report otherwise
[9] = biological target: HCV Core1-169 (HCV-1) (UniProt P26664); assay: SPR sandwich, C11-3 capture
[10] = biological target: HCV Core1-169 (HCV-1) (UniProt P26664); assay: SPR sandwich, C11-9 capture
[11] = biological target: HCV Core1-169 (HCV-1) (UniProt P26664); assay: SPR sandwich, C11-14 capture
[12] = biological target: biotinylated HCV core peptide 134-154 (Peptide 1) (HCV-1); assay: EIA, captured mAb; remark: listed apart in the source
[13] = biological target: biotinylated HCV core peptide 151-171 (Peptide 3) (HCV-1); assay: EIA, captured mAb; remark: listed apart in the source
[14] = biological target: HCV Core1-169 (HCV-1) (UniProt P26664); assay: SPR sandwich, C11-7 capture
[15] = biological target: HCV Core1-169 (HCV-1) (UniProt P26664); assay: EIA, coated core1-169

Binder	Reactivity (OD492) [1] [OD]	Reactivity (OD492) [2] [OD]	Reactivity (OD492) [3] [OD]	expected % binding [4] [%]	Reactivity (OD492) [5] [OD]	expected % binding [6] [%]	expected % binding [7] [%]	expected % binding [8] [%]	expected % binding [9] [%]	expected % binding [10] [%]	expected % binding [11] [%]	Reactivity (OD492) [12] [OD]	Reactivity (OD492) [13] [OD]	expected % binding [14] [%]	OD (A492) [15] [OD]
HCV 208A-692 (antibody, V domains shown) VH: QGQMQQSGAELAKPGASVKLSCKTSGFTFSSSYISWLKQKPGQSLEWIAWIFAGTGNTNYNQKFTDKAQLTVDTSSSTAYMQLSSLTTEDSAIYYCAISGTGFTYWGQGTLVTVSA VL: EVLMTQSPLSLPVSLGDQASISCRSSQSLEHSNGNTYLEWFLQRPGQPPKLLIYKVSSRFSGVPDRFSGSGSGTDFTLKISRVEAEDLGVYYCFQGSHVPFTFGSGTKLAIKR	3.67	0.07	0.38	–	–	–	–	–	–	–	–	–	–	–	–
HCV 208B-471 (antibody, V domains shown) VH: QGQLQQSGPVLVKPGASEILYCKTSGFTFSSTYISWLKQKPGQSLEWIAWIYAGTGATNYNQKFTGKAQLTVDASSNTAYMHFSGLTPEDSAIYYCAISGAGVYWGQGTLVTVSA VL: DVVMTQTPLSLPVSLGDQASISCRSSQSLLHSNGNTYLEWYLQKPGQSPNLLIYNVSNRFSGVPDRFSGSGSGTDFALKISRVGAEDLGVYYCFQGSHVPLTFGAGTKLELKR	1.62	0.08	–	< 1	0.11	< 1	< 1	< 1	–	–	–	–	–	–	–
HCV 208A-967 (antibody, V domains shown) VH: QVQLEESGPGLVAPSQSLSITCTVSGFSLTSYGVHWVRQPPGKGLEWLGVIWAVGSINYNSALMSRLSISKDNSKSQVFLKMNSLRTDDTAMYYCARDRTTATPFFDYWGQGTTLTVSS VL: DIVLTQSPASLAGSLGKRAPISCKASESVNFFGTNLIHWYQQKPGQPPKLLIYHASNLKTGVPARFRGRGSKTNFPLPIDPVEENDVAIYYCLQNRKIPLTFGVGTKLELKR	–	–	0.73	–	–	–	–	–	< 1	< 1	< 1	0.52	0.18	< 1	–
HCV 208B-353 (antibody, V domains shown) VH: EVQLVESGGDLVKPGGSLKLSCAASGFTFNHYGMSWVRQPPDKRLEWVATISSGGGYTYYPDSVKGRFTISRDNAKDTLSLQMSSLRSGDTAVYYCASLYGSLFAYWGQGTLVTVSA VL: DIVMTQSQKFMSTTVGDRVRVTCKASQNVGTAVAWYQQKPGQSPKLLIYSASNRYTGVPDRFTGSGSGTDFTLTITNMQSEDLADYFCQQYSTYPLTFGSGAKLEIKR	0.07	0.07	–	–	2.47	–	–	–	1.9	< 1	2.4	–	–	2.6	0.3

Reference: patent US9371374
